Data from PMC6377630, “NapM enhances the survival of Mycobacterium tuberculosis under stress and in macrophages” (Communications Biology, 2019).

Columns and labels:
[1] = tested on: NapM (Mycobacterium tuberculosis H37Ra); experiment: EMSA; conditions: pH and temperature not stated
[2] = tested on: DnaA (Mycobacterium tuberculosis H37Ra); experiment: EMSA; conditions: pH and temperature not stated

In the case of oriC fragment, the Kd [1] is reported as 458 nM and the Kd [2] is reported as 60.5 nM.
